Target: the molecule itself
Assay: SEC; purified protein on a Superdex 200 Increase 10/300 GL column; size read against standard proteins

Protein | stoichiometry N
tag-less AphAEc (AphA of E. coli after removal of the N-terminal His6-SUMO tag by Ulp1) (enzyme, AphA, non-specific periplasmic acid phosphatase of E. coli; protein of around 25 kDa after cleavage; The linker between SUMO and AphA was removed by mutagenesis; also called cleaved tag-less AphAEc; source: E. coli, purified as His6-SUMO-AphAEc, tag cleaved off with His6-Ulp1, size exclusion chromatography; not shown: His6-SUMO, N-terminal, cleaved) SPSPLNPGTNVARLAEQAPIHWVSVAQIENSLAGRPPMAVGFDIDDTVLFSSPGFWRGKKTFSPESEDYLKNPVFWEKMNNGWDEFSIPKEVARQLIDMHVRRGDAIFFVTGRSPTKTETVSKTLADNFHIPATNMNPVIFAGDKPGQNTKSQWLQDKNIRIFYGDSDNDITAARDVGARGIRILRASNSTYKPLPQAGAFGEEVIVNSEY | 4
AphAEc-His6 (periplasmic acid phosphatase AphA of E. coli, signal peptide removed, C-terminal six-histidine tag) (enzyme, UniProt P0AE22 26-237, looked up, AphA, non-specific periplasmic acid phosphatase of E. coli, with the N-terminal signal peptide removed; also called AphA-His6; Ct His6 tagged AphAEc; source: E. coli, purified (Ni-NTA, size exclusion chromatography on Superdex 200 Increase); not shown: His6, C-terminal, kept) SSPSPLNPGTNVARLAEQAPIHWVSVAQIENSLAGRPPMAVGFDIDDTVLFSSPGFWRGKKTFSPESEDYLKNPVFWEKMNNGWDEFSIPKEVARQLIDMHVRRGDAIFFVTGRSPTKTETVSKTLADNFHIPATNMNPVIFAGDKPGQNTKSQWLQDKNIRIFYGDSDNDITAARDVGARGIRILRASNSTYKPLPQAGAFGEEVIVNSEY | 2
His6-AphAEc (periplasmic acid phosphatase AphA of E. coli, signal peptide removed, N-terminal six-histidine tag) (enzyme, UniProt P0AE22 26-237, looked up, AphA, non-specific periplasmic acid phosphatase of E. coli, with the N-terminal signal peptide removed; also called Nt His6 tagged AphAEc; source: E. coli, purified (Ni-NTA, size exclusion chromatography on Superdex 200 Increase); not shown: His6, N-terminal, kept) SSPSPLNPGTNVARLAEQAPIHWVSVAQIENSLAGRPPMAVGFDIDDTVLFSSPGFWRGKKTFSPESEDYLKNPVFWEKMNNGWDEFSIPKEVARQLIDMHVRRGDAIFFVTGRSPTKTETVSKTLADNFHIPATNMNPVIFAGDKPGQNTKSQWLQDKNIRIFYGDSDNDITAARDVGARGIRILRASNSTYKPLPQAGAFGEEVIVNSEY | 4

— publication doi:10.1101/2022.08.24.505078, “Cyclic AMP competitively inhibits periplasmic phosphatases to coordinate nutritional growth with competence development of Haemophilus influenzae” (bioRxiv, 2022)
